Measurements: paper PMC7822592, “The half-life of the bone-derived hormone osteocalcin is regulated through O-glycosylation in mice, but not in humans” (eLife, 2020)
No end group written: not given here. O‑glycan = not defined here

What was measured:
[1] = Ex vivo half-life of mouse OCN in plasma; type: in vitro ADME; conditions: 100 ng/ml; for % OCN from initial: Bglap-/- mouse plasma
Procedure: The mouse OCN ex vivo half-life assays were performed with fresh plasma (lithium heparin) collected from four independent Bglap-/- mice. Glycosylated OCN produced in HEK293 cells and non-glycosylated OCN, produced in bacteria as previously described ([Ferron et al., 2012]), were incubated at 100 ng/ml in plasma at 37°C and OCN level was measured at indicated time points using the total mouse OCN ELISA assay described previously ([Ferron et al., 2010b]). […] The detection antibody is a goat polyclonal antibody directed against the C-terminal region (amino acids 26 to 46) of mouse OCN (anti-CTERM OCN). This assay detects with the same sensitivity glycosylated and non-glycosylated mouse OCN at concentration of 50 ng/ml or less (Figure 3—figure supplement 2). Therefore, all samples were diluted to be in this range before being measured by the ELISA. Human OCN half-life assay was performed ex vivo using Bglap-/- mice plasma and human OCN at 60 ng/ml. Human OCN level was measured at different time point using the human ucOCN ELISA described above. At the experiment start point (T0), an aliquot of plasma was diluted in ELISA assay buffer and kept on ice for OCN measurements. In some experiments, plasma was heat-inactivated for 30 min at 56°C, or treated with EDTA (10 mM, Wisent), phenylmethylsulfonyl fluoride (PMSF, 10 mM, Sigma), pepstatin A (Pep A, 10 μM, Sigma) which inhibits aspartic proteases (pepsin, cathepsin D, renin, chymosin), RVKR (Dec-RVKR-CMK, 50 μM; Tocris) or talabostat (10 mM; Tocris). Results are calculated in percentage relative to the initial concentration of non-glycosylated and glycosylated OCN respectively.

INS-1 832/3 cells = experiment: Ins1 gene expression in INS-1 832/3 cells treated with ucOCN; type: cell-based, rat; conditions: 8 hr, qPCR
Procedure: The INS-1 832/3 rat insulinoma cell line (Millipore-Sigma) was cultured in RPMI-1640 with 11.1 mM D-glucose, supplemented with 2 mM L-glutamine, 1 mM sodium pyruvate, 10 mM HEPES, 0.05 mM β-mercaptoethanol and 10% FBS ([Hohmeier et al., 2000]). On day 1, cells were plated at 3 × 10^5 cells per well in 12-well plates and on day 5, cells were washed with PBS and incubated with culture media containing 5 mM D-glucose. Twenty-four hours later, cells were washed with PBS and incubated for 4 hr in culture media containing 1% FBS, 5 mM D-glucose and 0.1% BSA. OCN was added for 8 hr before supernatants and cells were harvested. ucOCN and O-gly ucOCN concentration were measured in supernatants by ELISA and cells were lyzed and RNA extracted as described in the material and methods section. Gene expression was analyzed using rat specific primers for Ins1 and Gapdh.

human plasmin = target: T1, human plasmin (Homo sapiens, UniProt P00747); experiment: Plasmin enzymatic assay on OCN in heat-inactivated plasma; type: in vitro ADME; conditions: 2hrs, 37°C; for % OCN from initial: heat-inactivated Bglap-/- plasma diluted two times in 100 mM Tris pH 7.5, 50 ng/ml, ELISA; for % OCN from initial in plasmin (0.3 U/ml): inset graph, heat-inactivated Bglap-/- plasma, 50 ng/ml
T1 construct: different concentration of human plasmin (Sigma); purchased Sigma P1867
Procedure: The plasmin enzymatic assay was performed on plasma ex vivo in the presence of non-glycosylated OCN and glycosylated OCN as follows: plasma from Bglap-/- mice was heat-inactivated for 30 min at 56°C, then diluted two times in the enzyme assay buffer containing 100 mM Tris buffer pH 7.5. Non-glycosylated OCN or glycosylated OCN was incubated at 50 ng/ml in the diluted plasma for two hours in the presence of different concentration of human plasmin (Sigma) ranging from 0 to 0.3 U/ml. After two hours, OCN level was measured using total mouse OCN ELISA. Results are represented as percentage of initial concentration of non-glycosylated and glycosylated OCN respectively.

T1 sequence (P00747 581-810 limits assumed): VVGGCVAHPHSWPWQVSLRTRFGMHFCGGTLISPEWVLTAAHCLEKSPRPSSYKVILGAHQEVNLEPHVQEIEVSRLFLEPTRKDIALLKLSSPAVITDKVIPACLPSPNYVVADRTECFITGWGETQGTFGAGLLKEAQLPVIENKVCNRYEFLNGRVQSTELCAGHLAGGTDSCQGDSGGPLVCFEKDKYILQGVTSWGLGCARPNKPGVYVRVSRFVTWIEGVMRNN
T1 sequence (P00747 97-580 partner limits assumed): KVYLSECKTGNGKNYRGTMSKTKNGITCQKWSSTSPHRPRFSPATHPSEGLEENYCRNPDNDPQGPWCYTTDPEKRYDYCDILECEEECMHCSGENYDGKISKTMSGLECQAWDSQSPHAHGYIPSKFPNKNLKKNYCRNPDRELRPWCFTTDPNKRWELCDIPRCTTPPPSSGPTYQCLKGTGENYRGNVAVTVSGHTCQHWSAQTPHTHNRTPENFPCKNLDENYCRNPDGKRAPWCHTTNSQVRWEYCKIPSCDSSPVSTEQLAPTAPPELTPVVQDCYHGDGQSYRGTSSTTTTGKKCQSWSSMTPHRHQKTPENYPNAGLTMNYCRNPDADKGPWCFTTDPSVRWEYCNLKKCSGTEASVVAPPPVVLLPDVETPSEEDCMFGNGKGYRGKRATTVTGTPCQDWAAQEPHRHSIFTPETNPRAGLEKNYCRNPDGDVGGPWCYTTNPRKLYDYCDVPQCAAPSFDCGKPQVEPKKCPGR

O-gly ucOCN: O-glycosylated uncarboxylated mouse osteocalcin produced and purified from HEK293 as Fc fusion, released by thrombin (YLGASVPS(O‑glycan)PDPLEPTREQCELNPACDELSDQYGLKTAYKRIYGITI; ends and bridges not checked; also: O-glycosylated (HexNAc, Hex, NANA); UniProt P86546 50-95, looked up)
% OCN from initial ([1]; 37°C, 0 min, ELISA, replicate 1): 100.0% | % OCN from initial ([1]; 37°C, 0 min, ELISA, replicate 2): 100.0% | % OCN from initial ([1]; 37°C, 0 min, ELISA, replicate 3): 100.0% | % OCN from initial ([1]; 37°C, 0 min, ELISA, replicate 4): 100.0% | % OCN from initial ([1]; 37°C, 0 min, ELISA, replicate 5): 100.0% | % OCN from initial ([1]; 37°C, 15 min, ELISA, replicate 1): 104.1% | % OCN from initial ([1]; 37°C, 15 min, ELISA, replicate 2): 103.7% | % OCN from initial ([1]; 37°C, 15 min, ELISA, replicate 3): 102.4% | % OCN from initial ([1]; 37°C, 15 min, ELISA, replicate 4): 105.4% | % OCN from initial ([1]; 37°C, 15 min, ELISA, replicate 5): 92.4% | % OCN from initial ([1]; 37°C, 30 min, ELISA, replicate 1): 101.9% | % OCN from initial ([1]; 37°C, 30 min, ELISA, replicate 2): 103.9% | % OCN from initial ([1]; 37°C, 30 min, ELISA, replicate 3): 104.6% | % OCN from initial ([1]; 37°C, 30 min, ELISA, replicate 4): 102.8% | % OCN from initial ([1]; 37°C, 30 min, ELISA, replicate 5): 91.2% | % OCN from initial ([1]; 37°C, 60 min, ELISA, replicate 1): 103.5% | % OCN from initial ([1]; 37°C, 60 min, ELISA, replicate 2): 108.3% | % OCN from initial ([1]; 37°C, 60 min, ELISA, replicate 3): 103.5% | % OCN from initial ([1]; 37°C, 60 min, ELISA, replicate 4): 102.6% | % OCN from initial ([1]; 37°C, 60 min, ELISA, replicate 5): 95.6% | % OCN from initial ([1]; 37°C, 90 min, ELISA, replicate 1): 108.4% | % OCN from initial ([1]; 37°C, 90 min, ELISA, replicate 2): 106.6% | % OCN from initial ([1]; 37°C, 90 min, ELISA, replicate 3): 107.8% | % OCN from initial ([1]; 37°C, 90 min, ELISA, replicate 4): 102.6% | % OCN from initial ([1]; 37°C, 90 min, ELISA, replicate 5): 92.9% | % OCN from initial ([1]; 37°C, 120 min, ELISA, replicate 1): 105.8% | % OCN from initial ([1]; 37°C, 120 min, ELISA, replicate 2): 103.2% | % OCN from initial ([1]; 37°C, 120 min, ELISA, replicate 3): 106.0% | % OCN from initial ([1]; 37°C, 120 min, ELISA, replicate 4): 107.0% | % OCN from initial ([1]; 37°C, 120 min, ELISA, replicate 5): 90.1% | % OCN from initial ([1]; 37°C, 180 min, ELISA, replicate 1): 106.8% | % OCN from initial ([1]; 37°C, 180 min, ELISA, replicate 2): 107.9% | % OCN from initial ([1]; 37°C, 180 min, ELISA, replicate 3): 107.4% | % OCN from initial ([1]; 37°C, 180 min, ELISA, replicate 4): 119.0% | % OCN from initial ([1]; 37°C, 180 min, ELISA, replicate 5): 78.8% | % OCN from initial ([1]; 37°C, 300 min, ELISA, replicate 1): 106.5% | % OCN from initial ([1]; 37°C, 300 min, ELISA, replicate 2): 103.5% | % OCN from initial ([1]; 37°C, 300 min, ELISA, replicate 3): 104.6% | % OCN from initial ([1]; 37°C, 300 min, ELISA, replicate 4): 102.2% | % OCN from initial ([1]; 37°C, 300 min, ELISA, replicate 5): 88.0% | % OCN from initial ([1]; Figure 3D, 2hrs, 37°C, Not HI, ELISA, replicate 1): 100.8% | % OCN from initial ([1]; Figure 3D, 2hrs, 37°C, Not HI, ELISA, replicate 2): 92.4% | % OCN from initial ([1]; Figure 3D, 2hrs, 37°C, Not HI, ELISA, replicate 3): 106.8% | % OCN from initial ([1]; Figure 3D, T0, ELISA, replicate 1): 101.5% | % OCN from initial ([1]; Figure 3D, T0, ELISA, replicate 2): 94.9% | % OCN from initial ([1]; Figure 3D, T0, ELISA, replicate 3): 103.6% | % OCN from initial ([1]; Figure 3 supplement 3A, 37°C, T=2hours, replicate 1): 90.8% | % OCN from initial ([1]; Figure 3 supplement 3A, 37°C, T=2hours, replicate 2): 95.5% | % OCN from initial ([1]; Figure 3 supplement 3A, 37°C, T=2hours, replicate 3): 95.0% | % OCN from initial ([1]; Figure 3 supplement 3A, T0, replicate 1): 105.0% | % OCN from initial ([1]; Figure 3 supplement 3A, T0, replicate 2): 101.3% | % OCN from initial ([1]; Figure 3 supplement 3A, T0, replicate 3): 93.7% | stable in plasma for ([1]; fresh Bglap-/- mouse plasma (lithium heparin), 37°C, total mouse OCN ELISA, n = 4 plasma): more than 5 hr | Ins1 gene expression (Fold change relative to vehicle) (INS-1 832/3 cells; 0.1 ng/mL, replicate 1): 2.4 Fold change | Ins1 gene expression (Fold change relative to vehicle) (INS-1 832/3 cells; 0.1 ng/mL, replicate 2): 1.6 Fold change | Ins1 gene expression (Fold change relative to vehicle) (INS-1 832/3 cells; 0.1 ng/mL, replicate 3): 2.2 Fold change | Ins1 gene expression (Fold change relative to vehicle) (INS-1 832/3 cells; 0.1 ng/mL, replicate 4): 2.6 Fold change | Ins1 gene expression (Fold change relative to vehicle) (INS-1 832/3 cells; 0.1 ng/mL, replicate 5): 3.1 Fold change | Ins1 gene expression (Fold change relative to vehicle) (INS-1 832/3 cells; 0.1 ng/mL, replicate 6): 3.0 Fold change | Ins1 gene expression (Fold change relative to vehicle) (INS-1 832/3 cells; 0.1 ng/mL, replicate 7): 4.2 Fold change | Ins1 gene expression (Fold change relative to vehicle) (INS-1 832/3 cells; 0.1 ng/mL, replicate 8): 2.7 Fold change | Ins1 gene expression (Fold change relative to vehicle) (INS-1 832/3 cells; 0.3 ng/mL, replicate 1): 0.562 Fold change | Ins1 gene expression (Fold change relative to vehicle) (INS-1 832/3 cells; 0.3 ng/mL, replicate 2): 1.1 Fold change | Ins1 gene expression (Fold change relative to vehicle) (INS-1 832/3 cells; 0.3 ng/mL, replicate 3): 1.1 Fold change | Ins1 gene expression (Fold change relative to vehicle) (INS-1 832/3 cells; 0.3 ng/mL, replicate 4): 12.1 Fold change | Ins1 gene expression (Fold change relative to vehicle) (INS-1 832/3 cells; 0.3 ng/mL, replicate 5): 2.0 Fold change | Ins1 gene expression (Fold change relative to vehicle) (INS-1 832/3 cells; 0.3 ng/mL, replicate 6): 8.6 Fold change | Ins1 gene expression (Fold change relative to vehicle) (INS-1 832/3 cells; 0.3 ng/mL, replicate 7): 2.7 Fold change | Ins1 gene expression (Fold change relative to vehicle) (INS-1 832/3 cells; 0.3 ng/mL, replicate 8): 4.9 Fold change | Ins1 gene expression (Fold change relative to vehicle) (INS-1 832/3 cells; 0.3 ng/mL, replicate 9): 2.3 Fold change | Ins1 gene expression (Fold change relative to vehicle) (INS-1 832/3 cells; 0.3 ng/mL, replicate 10): 0.7 Fold change | % OCN from initial (human plasmin; plasmin 0 U/ml, replicate 1): 96.7% | % OCN from initial (human plasmin; plasmin 0 U/ml, replicate 2): 103.3% | % OCN from initial (human plasmin; plasmin 0.024 U/ml, replicate 1): 81.4% | % OCN from initial (human plasmin; plasmin 0.024 U/ml, replicate 2): 86.9% | % OCN from initial (human plasmin; plasmin 0.12 U/ml, replicate 1): 63.3% | % OCN from initial (human plasmin; plasmin 0.12 U/ml, replicate 2): 75.7% | % OCN from initial (human plasmin; plasmin 0.3 U/ml, replicate 1): 34.5% | % OCN from initial (human plasmin; plasmin 0.3 U/ml, replicate 2): 40.8% | % OCN from initial in plasmin (0.3 U/ml) (human plasmin; replicate 1): 34.5% | % OCN from initial in plasmin (0.3 U/ml) (human plasmin; replicate 2): 40.8% | % OCN from initial in plasmin (0.3 U/ml) (human plasmin; replicate 3): 32.1% | % OCN from initial in plasmin (0.3 U/ml) (human plasmin; replicate 4): 27.0% | % OCN from initial in plasmin (0.3 U/ml) (human plasmin; replicate 5): 38.6%
